Assay results as given in US20190170753A1 (ICAHN SCHOOL OF MEDICINE AT MOUNT SINAI, published 2019).
Where no end group is shown, it is not given here.

Experiments:
[1] = target: T1, HCV core peptide 3 (hepatitis C virus, N-terminal biotin; C-terminal amide); assay: peptide EIA, 2 ug/mL IgG;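 note: purified mouse IgG binding to individually well-coated synthetic peptides, detected with peroxidase anti-mouse IgG Fc and o-phenylenediamine, IgG incubated at least 1 h at room temperature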
T1 construct: range 5-19
Description: (§1) The coated plates were kept dry in a sealed foil pouch and stored at <10 degrees C. until ready for use. A peptide coated plate for each test antibody was blocked using 3% BSA in PBS with 0.5% Tween 20. The blocked plates were washed with distilled water and a 2 ug/mL solution of purified IgG from each test sample diluted in BSA block solution was added to each peptide coated well of the blocked plate and allowed to incubate at room temperature for at least one hour. Following incubation the plates were washed with distilled water. A 200 ng/mL solution of peroxidase labeled F(ab′)2 fragment goat anti-mouse IgG Fc fragment specific (Jackson Immunoresearch) in BSA block solution was added to all wells and incubated at room temperature for 30 minutes. The plates were washed with distilled water and o-phenylenediamine substrate was used as the chromagen to generate signal. Plates were read at 492 nm and the results were analyzed.

[2] = target: T2, HCV core peptide 4 (hepatitis C virus, N-terminal biotin; C-terminal amide); assay: peptide EIA, 2 ug/mL IgG;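 note: purified mouse IgG binding to individually well-coated synthetic peptides, detected with peroxidase anti-mouse IgG Fc and o-phenylenediamine, IgG incubated at least 1 h at room temperature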
T2 construct: range 7-21
Description: as §1

[3] = target: T3, HCV core peptide 10 (hepatitis C virus, N-terminal biotin; C-terminal amide); assay: peptide EIA, 2 ug/mL IgG;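 note: purified mouse IgG binding to individually well-coated synthetic peptides, detected with peroxidase anti-mouse IgG Fc and o-phenylenediamine, IgG incubated at least 1 h at room temperature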
T3 construct: range 19-33
Description: as §1

[4] = target: T4, HCV core peptide 12 (hepatitis C virus, N-terminal biotin; C-terminal amide); assay: peptide EIA, 2 ug/mL IgG;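 note: purified mouse IgG binding to individually well-coated synthetic peptides, detected with peroxidase anti-mouse IgG Fc and o-phenylenediamine, IgG incubated at least 1 h at room temperature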
T4 construct: range 23-37
Description: as §1

[5] = target: T5, HCV core peptide 13 (hepatitis C virus, N-terminal biotin; C-terminal amide); assay: peptide EIA, 2 ug/mL IgG
T5 construct: range 25-39
Description: as §1

[6] = target: T6, HCV core peptide 20 (hepatitis C virus, N-terminal biotin; C-terminal amide); assay: peptide EIA, 2 ug/mL IgG
T6 construct: range 39-53
Description: as §1

[7] = target: T7, HCV core peptide 22 (hepatitis C virus, N-terminal biotin; C-terminal amide); assay: peptide EIA, 2 ug/mL IgG
T7 construct: range 43-57
Description: as §1

[8] = target: T8, HCV core peptide 27 (hepatitis C virus, N-terminal biotin; C-terminal amide); assay: peptide EIA, 2 ug/mL IgG
T8 construct: range 53-67
Description: as §1

[9] = target: T9, HCV core peptide 32 (hepatitis C virus, N-terminal biotin; C-terminal amide); assay: peptide EIA, 2 ug/mL IgG
T9 construct: range 63-77
Description: as §1

[10] = target: T10, HCV core peptide 37 (hepatitis C virus, N-terminal biotin; C-terminal amide); assay: peptide EIA, 2 ug/mL IgG
T10 construct: range 73-87
Description: as §1

[11] = target: T11, HCV core peptide 38 (hepatitis C virus, N-terminal biotin; C-terminal amide); assay: peptide EIA, 2 ug/mL IgG
T11 construct: range 75-89
Description: as §1

[12] = target: T12, HCV core peptide 50 (hepatitis C virus, HELM PEPTIDE1{[O=C1N[C@H]2[C@H](CS[C@H]2CCCCC(=O)[*:2])N1].S.G.S.G.S.P.R.G.S.R.P.S.W.G.P.T.D.P.R.[am]}$$$$V2.0; SMILES …); assay: peptide EIA, 2 ug/mL IgG
T12 construct: also called aa 99-113
T12 peptide: SGSGSPRGSRPSWGPTDPR
Description: as §1

[13] = target: T13, HCV core peptide 55 (hepatitis C virus, HELM PEPTIDE1{[O=C1N[C@H]2[C@H](CS[C@H]2CCCCC(=O)[*:2])N1].S.G.S.G.P.T.D.P.R.R.R.S.R.N.L.G.K.V.I.[am]}$$$$V2.0; SMILES …); assay: peptide EIA, 2 ug/mL IgG
T13 construct: also called aa 109-123
T13 peptide: SGSGPTDPRRRSRNLGKVI
Description: as §1

[14] = target: HCV core peptide 58 (hepatitis C virus, N-terminal biotin; C-terminal amide); assay: peptide EIA, 2 ug/mL IgG
Description: as §1

[15] = target: HCV core peptide 63 (hepatitis C virus, N-terminal biotin; C-terminal amide); assay: peptide EIA, 2 ug/mL IgG
Description: as §1

[16] = target: HCV core peptide 64 (hepatitis C virus, N-terminal biotin; C-terminal amide); assay: peptide EIA, 2 ug/mL IgG
Description: as §1

[17] = target: HCV core peptide 66 (hepatitis C virus, N-terminal biotin; C-terminal amide); assay: peptide EIA, 2 ug/mL IgG
Description: as §1

[18] = target: HCV core peptide 67 (hepatitis C virus, N-terminal biotin; C-terminal amide); assay: peptide EIA, 2 ug/mL IgG
Description: as §1

[19] = target: HCV core peptide 76 (hepatitis C virus, N-terminal biotin; C-terminal amide); assay: peptide EIA, 2 ug/mL IgG
Description: as §1

[20] = target: HCV core peptide 78 (hepatitis C virus, N-terminal biotin; C-terminal amide); assay: peptide EIA, 2 ug/mL IgG
Description: as §1

[21] = target: HCV core peptide 84 (hepatitis C virus, N-terminal biotin; C-terminal amide); assay: peptide EIA, 2 ug/mL IgG
Description: as §1

[22] = target: HCV core peptide 86 (hepatitis C virus, N-terminal biotin; C-terminal amide); assay: peptide EIA, 2 ug/mL IgG
Description: as §1

[23] = target: T14, WT1STHV biotin labeled HCV core peptide (hepatitis C virus, biotin labeled (position not given)); assay: capture EIA; Ab 2000 ng/mL; bt-peptide 500 ng/mL
T14 peptide: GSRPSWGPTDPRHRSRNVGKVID

[24] = target: T15, Mut1T110N biotin labeled HCV core peptide (hepatitis C virus, biotin labeled (position not given)); assay: capture EIA; Ab 1.953 ng/mL; bt-peptide 500 ng/mL
T15 peptide: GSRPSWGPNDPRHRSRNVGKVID

[25] = target: Mut6T110S biotin labeled HCV core peptide (hepatitis C virus, biotin labeled (position not given)); assay: capture EIA; Ab 1.953 ng/mL; bt-peptide 500 ng/mL
[26] = target: T16, C113WT biotin labeled HCV core peptide (hepatitis C virus, also: biotin labeled, position not given here); assay: capture EIA; Ab 1.953 ng/mL; bt-peptide 500 ng/mL
T16 peptide: RGSRPSWGPTD

[27] = target: T17, C113T109N biotin labeled HCV core peptide (hepatitis C virus, also: biotin labeled, position not given here); assay: capture EIA; Ab 1.953 ng/mL; bt-peptide 500 ng/mL
T17 construct: also called C113T110N
T17 peptide: RGSRPSWGPND

[28] = target: T18, 92-133 biotin labeled HCV core peptide (hepatitis C virus, UniProt Q9WMX2 92-133, chain 1: biotin label (bt-pep). Its position and any spacer are not visible in the passages shown.); assay: capture EIA; Ab 1.953 ng/mL; bt-peptide 500 ng/mL
T18 construct: Only the label 92-133 is printed
T18 peptide: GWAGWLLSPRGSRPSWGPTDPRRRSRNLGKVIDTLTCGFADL
Description: (§2) Assay wells were coated with sheep anti-mouse IgG Fc specific antibody and incubated overnight. The coating solution was then removed; the wells blocked using BSA/tween in PBS and then washed with dH2O. […] Next, biotin labeled peptides (diluted to 500 ng/mL in block) were added, the plates incubated for 10 minutes while shaking at 700 rpm and then washed. Peroxidase conjugated streptavidin (diluted to 200 ng/mL in block) was then added to all assay wells, incubated for 20 minutes while shaking at 700 rpm and then washed. Finally, color was developed using OPD and signal quenched using 1N H₂SO₄. Signal was read at 492 nm.

[29] = target: T14, WT1STHV biotin labeled HCV core peptide; assay: capture EIA; Ab 1.953 ng/mL; bt-peptide 500 ng/mL
Description: as §2

B1: Neo4 mouse monoclonal antibody (antibody, V domains shown)
VH: QIQLKESGPAVIKPSQSLSLTCIVSGFSITSSVYCWQWIRQPPGKGLEWMGRICYDGSVDYSPSITSRGTISRDTSLNKVFFQLSSVTNEDTAMYYCSRENHIDYYDTTYPSFDVWGAGTTVTVSS
VL: DIVLTQSPASLIVSLGQRATISCRASKSVNEYGYTYMHWYQQKPGLPPKLLIYLASNLDSGVPARFSGSGSGTDFTLNIHPVEEEDAATYYCQHSRELPYTFGGGTKLEIKR
notes: Mouse hybridoma antibody, isotype IgG1, purified with Protein G; also called HCV Neo4
- OD (A492 nm) [1]: 0.05 OD
- OD (A492 nm) [2]: 0.06 OD
- OD (A492 nm) [3]: 0.05 OD
- OD (A492 nm) [4]: 0.07 OD
- OD (A492 nm) [5]: 0.05 OD
- OD (A492 nm) [6]: 0.05 OD
- OD (A492 nm) [7]: 0.07 OD
- OD (A492 nm) [8]: 0.04 OD
- OD (A492 nm) [9]: 0.06 OD
- OD (A492 nm) [10]: 0.04 OD
- OD (A492 nm) [11]: 0.05 OD
- OD (A492 nm) [12]: 1.03 OD
- OD (A492 nm) [13]: 0.97 OD
- OD (A492 nm) [14]: 0.05 OD
- OD (A492 nm) [15]: 0.04 OD
- OD (A492 nm) [16]: 0.04 OD
- OD (A492 nm) [17]: 0.05 OD
- OD (A492 nm) [18]: 0.05 OD
- OD (A492 nm) [19]: 0.05 OD
- OD (A492 nm) [20]: 0.06 OD
- OD (A492 nm) [21]: 0.05 OD
- OD (A492 nm) [22]: 0.05 OD
- signal at 492 nm [23]: 1.9 A492
- signal at 492 nm [24]: 0.0728 A492
- signal at 492 nm [25]: 0.0717 A492
- signal at 492 nm [26]: 0.0765 A492
- signal at 492 nm [27]: 0.0853 A492
- signal at 492 nm [28]: 0.129 A492
- signal at 492 nm [29]: 0.409 A492
